Here are results for two proteins from US20250263754.

The target of the series is T1, HRBP (1-81), amino acids 1 to 81 of the Nogo-B receptor (NgBR) family protein HRBP from Hevea brasiliensis.
T1 chain: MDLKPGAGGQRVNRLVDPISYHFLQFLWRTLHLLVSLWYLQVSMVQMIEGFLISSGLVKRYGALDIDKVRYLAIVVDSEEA

B1: LDAP1-linker-HRT1 fusion protein (protein)
chain: MAEADAKLQNDTVQEDEVTTLKYLEFVQIAAVHAVVIVSSIYDFAKDNSGPLKPGVQTVEGTVKTVMSPVYEKIQDIPLELLKFADRKVDGFVQEVDRHVPVLVKQASSQAFSAAHRAPEVARSIKSELNRVGVVDTATEMTKAAYATLEPTAKDLYIRYEPVAEHYAVSAWRSLNRLPLFSEVAHIVVPTAAYWTDKYNKGVRYMEVKGFGVASYMPLVPTERIAKVFGEREEEIVLEMSPMTTSEVVNTGNSADGGGGSGGSGGSGGGSTQGGFLALLNVLTYCYELGVKYATIYAFSIDNFRRKPHEVQYVMDLMLEKIEGMIMEESIINAYDICVRFVGNLKLLSEPVKTAADKIMRATANNSKCVLLIAVCYTSTDEIVHAVEESSELNSNEVCNNQELEEANATGSGTVIQIENMESYSGIKLVDLEKNTYINPYPDVLIRTSGETRLSNYLLWQTTNCILYSPHALWPEIGLRHVVWAVINFQRHYSYLEKHKEYLK
For B1, the Enzymatic activity (prenyl chain elongation, radioactivity of [4-14C]IPP incorporated, dpm) turned out to be 837 dpm.

B2: HRT1-linker-LDAP1 fusion protein (protein)
chain: GFLALLNVLTYCYELGVKYATIYAFSIDNFRRKPHEVQYVMDLMLEKIEGMIMEESIINAYDICVRFVGNLKLLSEPVKTAADKIMRATANNSKCVLLIAVCYTSTDEIVHAVEESSELNSNEVCNNQELEEANATGSGTVIQIENMESYSGIKLVDLEKNTYINPYPDVLIRTSGETRLSNYLLWQTTNCILYSPHALWPEIGLRHVVWAVINFQRHYSYLEKHKEYLKTGNSADGGGGSGGSGGSGGGSTQGMAEADAKLQNDTVQEDEVTTLKYLEFVQIAAVHAVVIVSSIYDFAKDNSGPLKPGVQTVEGTVKTVMSPVYEKIQDIPLELLKFADRKVDGFVQEVDRHVPVLVKQASSQAFSAAHRAPEVARSIKSELNRVGVVDTATEMTKAAYATLEPTAKDLYIRYEPVAEHYAVSAWRSLNRLPLFSEVAHIVVPTAAYWTDKYNKGVRYMEVKGFGVASYMPLVPTERIAKVFGEREEEIVLEMSPMTTSEVVN
For B2, the Enzymatic activity (prenyl chain elongation, radioactivity of [4-14C]IPP incorporated, dpm) was found to be 900 dpm.
